The nature of this data set: yeast display, Sf9 membrane polyspecificity reagent, FACS + sequencing; frameworks hold sequencing errors. In outline: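 Sorting gates, low and high (top ~1%), were placed on anti-HA fluorescence to track expression and on streptavidin fluorescence to track reagent binding. A clone's polyreactivity label is taken from the gate it came out of. The reagent was 10% biotinylated, detergent-solubilized Sf9 membrane, applied for 1 hour at 4 °C to galactose-induced yeast display cells.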
As for “QVQLVESGRGLVQAGGSLRLSCAASGSIFGGNGRGWSRQAPGKERELVAAITYSGGSTYYADSVKGRFTISRDNAKNTVYFQMNSLKPEDTAVYYCAKPSRVSIGYDYWGQGTQVTVSS”, the “polyreactivity (PSR sort gate)” value is on record as “low polyreactivity”.
“QVQLVESGRGLVQAGGSLRLSCAASGSIFISYAKGWYRQAPGKERELVAAITWSGDSTYYADSVKGRFTISRDNAKNTVYLQMNSLKPEDTAVYYCAKGQSRSLIYGRYGYWGQGTQVTVSS”: the “polyreactivity (PSR sort gate)” value was “low polyreactivity”.
As to “QVQLVESGRGLVQAGGSLRLSCAASGSIFRRYAMGWYRQAPGKERELVAGITRSGGNTYYADSVKGRFTISRDNAKNTVYLQMNSLKPEDTAVYYCAARHRYNIRTYDAWGQGTQVTVSS”, the “polyreactivity (PSR sort gate)” value was “high polyreactivity”.
As for “QVQLVESGRGLVQAGGSLRLSCAASGSNFRAYAMGWSRQAPGKERELVAAISIGGRTYYADSVKGRFTISRDNAKNTVYLQMNSLKPEDTAVYYCAAVRSYVKGGMYYWGQGTQVTVSS”, the “polyreactivity (PSR sort gate)” value was “low polyreactivity”.
Regarding “QVQLVESGRGLVQAGGSLRLSCAASGSTFGWYSMGWYRQAPGKERELVTAITSSGDSTYYADSVKGRFTISRDNAKNTVYLQMNSLKPEDTAVYYCAADYADLNDYWGQGTQVTVSS”, the “polyreactivity (PSR sort gate)” value was “low polyreactivity”.
With “QVQLVESGRGLVQAGGSLRLSCAASGSTFIPYVMGWYRKAPGKEREFVAAIRWSGGRTRYADSVKGRFTLSRDNAKNTVYLQMNSLKPEDTAVYYCAAYRLSKPFYKYDYWGQGTQVTVSS”, the “polyreactivity (PSR sort gate)” value is “high polyreactivity”.
In the case of “QVQLVESGRGLVQAGGSLRLSCAASGSTFRYNTMGSYRQAPGKERELVAAITGGGGSTYYADSVKGRFTISRDNAKNTVYLQMNSMKPEDTAVYYCATRSYALGYDYGGQGTQVTVSS” it was “low polyreactivity”; in that of “QVQLVESGRGLVQAGGSLRLSCAASGSTFSRYTMGWYRQAPGKERELVAAISYRGGSTYYADSVKGRFTISRDNAKNTVYLQMNSLKPEDTAVYYRAAEYRVEGSDYDYWGQGTQVTVSS”, “low polyreactivity”; in that of “QVQLVESGRGLVQAGGSLRLSCAASGYIFVYNAMGWYRQAPGKERELVAAITDGGGSTYADSVKGRFTISRDNAKNTVYLQMMSLNPEDTADYYCAARYSDTTWYVLYYYWGQGTQVTVSS”, “low polyreactivity”.
The value for “QVQLVESGRGLVQAGGSLRLSCASSGRIFRYYDMGWYRQAPGKERDFVAAITRSGAITYYADSVKGRFTISRDNAKNTVYLQMNSLKPEDTAVYYCNADFQDRTYDYDYWGQGTQVTVSS” was “low polyreactivity”; that for “QVQLVESGRGLVQAGGSLRLSCASSGTILERYVMGWYRQAPGKERELVAAITISRGSTYYADSVKGRFTISRDNAKNTVYLEMTRLKPEDTAVYYCAARNRYWGQGTKVTVSS” was “high polyreactivity”; that for “QVQLVESGRGLVQAGGSLRLSCAVSGSIGVYAMGWYRQAPGKERELVAAISKRGGSTRYADSVKGRFTISRDNAKNTVYLQMNSLKPEDTAVYYCAATGSVTGPRYAYDYWGQGTQVTVSS” was “high polyreactivity”.
On to “QVQLVESGRGLVQAGGSLRLSCPASGRTFSTNAMGWYRQAPGKEREFVAVISSSSGSTYYADSVKGRFTISRDNAKNTVYLQMNSLKPEDTAVYYCAAGYRYRVSYSVYEFYYWGQGTQVTVSS”, for which the “polyreactivity (PSR sort gate)” value is given as “high polyreactivity”.
For “QVQLVESGRGLVQAGGSLRLSSAASGSTFVNYDMGWYRQATGKERELVAAITSSGDSTYYADSVKGRFTISRDNAKNTVYLQMNSLKPEDTAVYYCNRDDAGIMDYWGQGTQVTVSS”, the “polyreactivity (PSR sort gate)” value is on record as “low polyreactivity”.
On to “QVQLVESGRGLVQAGVSLRLSCAASGFIFYDYAMGWYRPAPGTERELVAAISSGGSTNYADSVKGLFTISRDNAKNTVYLQMNSLKPEDTAVYYCAADVRSYATWKRDYDYWGQGTQVTVSS”, for which the “polyreactivity (PSR sort gate)” value is given as “low polyreactivity”.
Turning to “QVQLVESGRGLVQAGVSLRLSCAASGRIFTYYAMGWYRQAPGKERELVAAITTRGGRTRYADSVKGRFTISRDNAKITVYLQMNSLKPEDTAVYYCARGHSSVGPQYDYWGQGTQVTVSS”, the “polyreactivity (PSR sort gate)” value is “high polyreactivity”.
On to “QVQLVESGRGLVQAQGSLRLSCAASGRIFNYNAMGWYRQAPGNERELVAVISRRGGSTYYADSVKGRFTISRDYAKNTVYLQMNSLKPEDTAVYYCGADLPSYPYEYWGLGTQVTVSS”, for which the “polyreactivity (PSR sort gate)” value was “low polyreactivity”.
Turning to “QVQLVESGRGLVQEGGSLRLSCAASGRIFSAYAMGWYRQAPVKERELVAAITWSGANTDYADSVKGRFTISRDNAKNNVYLQMNSLKPEDTAVYYCNASVGRDSAYDYLGQGTQVTVSS”, the “polyreactivity (PSR sort gate)” value is listed as “low polyreactivity”.
Take “QVQLVESGRGVVQAGGSLRLSRADSGIIFLDHAMGWYRQAPGKEWELVAGINGGGRTDYADSVQGRFTISRDNAKNTVYLQMNSLTPEDTAVYYCAAESSWYSPDVNFWGQGTQVTVSS”: the “polyreactivity (PSR sort gate)” value is on record as “low polyreactivity”.
Turning to “QVQLVESGVALVQAGGSLRLSCAASGSILYPYAMGWYRQAPGKERELVAAITKTDGSTYYADSVKWRFTISRDNAKNTVYLQMNSLTPEDTAVYCCNAKWTLRWYFPYWSEYDYWGQGTQVTVSS”, the “polyreactivity (PSR sort gate)” value is recorded as “low polyreactivity”.
Regarding “QVQLVESGVCIVQAGGSLRLRCASSGSSLLNNAMGWYRQAPGKERELVAAITWSGGDTYYADSVKGRFTISRDNAKNTVYLQMNCLLQEDTAVYDCAADRYQWLTAYTDDLDHDYWGQGTQVTVSS”, the “polyreactivity (PSR sort gate)” value is reported as “high polyreactivity”.
Regarding “QVQLVESGVCLVQAGGSLRLSCAASGRIFYYYTMGWYRQAPGKERELVAAITSGGSTYYADSVKGSFTISRDNAKNTVYLQMNSLKPEDTAVYYCNAEFDDKYDYWGQGTQVTVSS”, the “polyreactivity (PSR sort gate)” value is on record as “low polyreactivity”.
In the case of “QVQLVESGVCLVQAGGSLRLSCAATGSIFEYNAMGWYRQAHGKERELVAAITRGGNTYYADSVKGLFTISRDNAKNTVYLQMNSLKPEDTAVYYCAAVEWYGYPYYYWGQGTQVTVSS” it was “low polyreactivity”; in that of “QVQLVESGVCLVQSGGSLRLICAASGRIITPYTMGWYRQAPGKERELVATITWSGGSTYYADSVKGRFTISRDNSKNTVYLQMNSLKPEDTAVYYCAARQIYVWAEYDYWGQGTQVTVSS”, “low polyreactivity”; in that of “QVQLVESGVGIVQAGGSLRLSCAASGSTLVYYDMGWYRQAPGKERELVATITGTDSTYYADSVKGRFTISRDNAKNTVYLQMNSLKPEDTADCAADRAGSRPDYDYWGQGTQVTVSS”, “low polyreactivity”.
For “QVQLVESGVGLVESGGSLRLSCASSGSTFVYTAMCWYRQSPGKERELVAAISWSGGSTYYADSVKGRFTISRDNAKKTVYLQMNSQKPEDTAVYYCAADGNPPAAMDYRGQGTQVTVSS”, the “polyreactivity (PSR sort gate)” value is on record as “low polyreactivity”.
“QVQLVESGVGLVKAGGSLRLSCATSGLILYRYVMGWYRQAAGKERQLVAAISSSGGRTYYADSVKGRFTISRDNAKNTVYLQMNSLKPEDTAVYYCAKRRSDARRGYDYLGQGTQVTVSS”: the “polyreactivity (PSR sort gate)” value is listed as “high polyreactivity”.
On to “QVQLVESGVGLVLAGGSLRLSCAASGRTFWSYAMGWYRKAPGKERELVAAITWSGTSTDYAVSVKGRFTISRDNAKNRVYLLMKSLKPEDTAVYYCAAIVYGQYRSRYYYWGQGTEVTVSS”, for which the “polyreactivity (PSR sort gate)” value was “high polyreactivity”.
Regarding “QVQLVESGVGLVQAARSLRLSCAASGRTFGSYAMGWYRQAPGKEREFVAGISYGGGRTYYADSVKGRFTISRDTAKNTVYLQMNSLKPADTAVYYCAADGVYRYNYPYLYTYDYWGQGTQVTVSS”, the “polyreactivity (PSR sort gate)” value was “low polyreactivity”.
Regarding “QVQLVESGVGLVQAGGSHRLSCAASGRTLWYYAIGWYRQAPGKERELVASIRRRTGSTYYAESVKGRFTISRDNAKNTVYLQLNSLKPEDTAVYYCAAKGFLRNGYWGQGTQVTVSS”, the “polyreactivity (PSR sort gate)” value is “high polyreactivity”.
Consider “QVQLVESGVGLVQAGGSHRLSCAASGSIFGFYVMGWYRQAPGKERELVAAISRGGTRTYYADSVKGRFTISRDNAKNTVYLQMNSLKPEDTAVYYCAKYDGGSGTGPRSDYWGQGTQVTVSS”, for which the “polyreactivity (PSR sort gate)” value is reported as “high polyreactivity”.
“QVQLVESGVGLVQAGGSLLLICAASGRIFGANAMGLYRQAPGKERELVAAISRTGGSTNYADSVKGRFTISRDNAINTVFLQMYSLKPEDTAVYYCNAVYRYAHPMEYWGQGTQVTVSS”: the “polyreactivity (PSR sort gate)” value is listed as “high polyreactivity”.
Consider “QVQLVESGVGLVQAGGSLLLSCAASGFISGSYAIGWYRQAPGKERELVADISRRGSSTYYADSVKGRFTISRDNAKNTVYLQMNSLKPEDTAVYVCNAVPYGNGAMDYWGQGTQVTVSS”, for which the “polyreactivity (PSR sort gate)” value was “high polyreactivity”.
As for “QVQLVESGVGLVQAGGSLRLICAASGSTFQPNVMGWYRQAPGKERELDAAIRGSSGNTYYADSVKGRFTISRDHAKNTVYLQMNSLKPEDTAVYYCAALFLFKTSSPYRYYYWGQGTQVTVSS”, the “polyreactivity (PSR sort gate)” value is given as “high polyreactivity”.
For the sequence “QVQLVESGVGLVQAGGSLRLICAASGSTFYRNAMGWYRHAPGKERELVAGISRRGGSTYYADSVKGRFTISRDIAKNRVYLQMNSLIPEDTAVYYCNADYPGIPHNDYWGQGTQVNVSS”, the “polyreactivity (PSR sort gate)” value was “low polyreactivity”.
“QVQLVESGVGLVQAGGSLRLSCAASGFIFPYYTMGWFRPAPGKERELVAAINVSGGSTYYADSVKGRFTISRDNAKNTVYVQMNSLKPEDTAVYYCAAVGGRFVGRSTMDYWGQGTQVTVSS”: the “polyreactivity (PSR sort gate)” value is “low polyreactivity”.
In the case of “QVQLVESGVGLVQAGGSLRLSCAASGFIFYNYAMGWYRQAPGKERELVASITSGGGTNYADSVKGRFTISRDNAKNTVYLQMNSLKPEDTAVYYCAVRGRGRFNGYGYWGQGTQVTVSS” it was “high polyreactivity”.
For the sequence “QVQLVESGVGLVQAGGSLRLSCAASGFTFRRYAMGWYRQAPGKERELVAAISIRGGRTYYADSVKGRFTISRDNAKNTVYLQMNSLKPEDTAVYYCAADGVYALDVESDSWGQGTQVTVSS”, the “polyreactivity (PSR sort gate)” value is “high polyreactivity”.
Regarding “QVQLVESGVGLVQAGGSLRLSCAASGFTFSYYAMGWYRKAPGKERELVAGITTGGGTNYADSVKGRFTISRDNAKNTVYLQMNSLKPEDPAVYYCNAVGAHWVSYSSPVRFDYWGQGTQVTVSS”, the “polyreactivity (PSR sort gate)” value was “low polyreactivity”.
As for “QVQLVESGVGLVQAGGSLRLSCAASGFTFYSNAMGWYRQAPGKERELVAAITGRVGRTYYADSVKGRFTISRDNAKNTVYLLMNSLKPEDTAVYYCAAVYQVSTWGGRYYFRQGYDYWGQGTQVTVSS”, the “polyreactivity (PSR sort gate)” value is recorded as “high polyreactivity”.
Consider “QVQLVESGVGLVQAGGSLRLSCAASGIIFFFYAMGWYIQAPGKERELVAAISDDGVSTDYADSVKGRFTISRDNAKNTVYLQMNSLKPEDTAVYYCSAKNERVYPWFSFGYWGQGTQVTVSS”, for which the “polyreactivity (PSR sort gate)” value is reported as “low polyreactivity”.

Values taken from the nanobody polyreactivity screen of Harvey et al. (2022).
